Assays:
[1] = tested on: synthesized polypeptide A21 (SEQ ID NO:17)
[2] = tested on: phage clone B74 (SEQ ID NO:2)
[3] = tested on: phage clone A31 (SEQ ID NO:14)
[4] = tested on: synthesized polypeptide B74 (SEQ ID NO:2)
[5] = tested on: synthesized polypeptide B49 (SEQ ID NO:1)
[6] = tested on: phage clone A13 (SEQ ID NO:12)
[7] = tested on: synthesized polypeptide A13 (SEQ ID NO:12)
[8] = tested on: phage clone A4 (SEQ ID NO:21)
[9] = tested on: synthesized polypeptide A34 (SEQ ID NO:11)
[10] = tested on: synthesized polypeptide B37 (SEQ ID NO:13)
[11] = tested on: variants of three peptides synthesized to contain a Pro at P3
[12] = tested on: phage clone D3 (SEQ ID NO:23)
[13] = tested on: phage clone A54 (SEQ ID NO:3)
[14] = tested on: phage clone A43 (SEQ ID NO:8)
[15] = tested on: synthesized polypeptide A3 (SEQ ID NO:24)
[16] = tested on: phage clone B79 (SEQ ID NO:5)
[17] = tested on: phage clone A54 (SEQ ID NO:4)
[18] = tested on: phage clone A10 (SEQ ID NO:26)
[19] = tested on: phage clone A9 (SEQ ID NO:19)
[20] = tested on: phage clone A45 (SEQ ID NO:25)
[21] = tested on: phage clone B49 (SEQ ID NO:1)
[22] = tested on: phage clone A34 (SEQ ID NO:11)
[23] = tested on: phage clone C6 (SEQ ID NO:22)
[24] = tested on: phage clone A29 (SEQ ID NO:27)
[25] = tested on: phage clone B53 (SEQ ID NO:15)
[26] = tested on: phage clone C5 (SEQ ID NO:18)
[27] = tested on: phage clone B46 (SEQ ID NO:7)
[28] = tested on: phage clone B37 (SEQ ID NO:13)
[29] = tested on: phage clone C9 (SEQ ID NO:10)
[30] = tested on: phage clone A21 (SEQ ID NO:17)
[31] = tested on: synthesized polypeptide C9 (SEQ ID NO:10)
[32] = tested on: phage clone A3 (SEQ ID NO:24)
[33] = tested on: phage clone A21 (SEQ ID NO:20)
[34] = tested on: phage clone C3 (SEQ ID NO:16)
[35] = tested on: phage clone A6 (SEQ ID NO:9), MMP-2 substrate
[36] = tested on: phage clone B66 (SEQ ID NO:6)
[37] = tested on: phage clone D5 (SEQ ID NO:34)
[38] = tested on: phage clone A6 (SEQ ID NO:30), MMP-9 substrate
[39] = tested on: the peptides (MMP-9 substrate peptides of Example III)
[40] = tested on: phage clone D17 (SEQ ID NO:35)
[41] = tested on: synthesized polypeptide C15 (contains SEQ ID NO:28)
[42] = tested on: phage clone D24 (SEQ ID NO:33)
[43] = tested on: phage clone C15 (SEQ ID NO:28)
[44] = tested on: phage clone A11 (SEQ ID NO:29)
[45] = tested on: synthesized polypeptide A6 (contains SEQ ID NO:30)
[46] = tested on: phage clone D36 (SEQ ID NO:32)
[47] = tested on: synthesized polypeptide A11 (contains SEQ ID NO:29)
[48] = tested on: mutant peptide A11m2 (AC-SGKIPRTATA-NH2, SEQ ID NO:126)
[49] = tested on: phage clone D12 (SEQ ID NO:31)

Sequence of MMP-2 (recombinant catalytic domain, APMA-activated) (chain, as listed by the source): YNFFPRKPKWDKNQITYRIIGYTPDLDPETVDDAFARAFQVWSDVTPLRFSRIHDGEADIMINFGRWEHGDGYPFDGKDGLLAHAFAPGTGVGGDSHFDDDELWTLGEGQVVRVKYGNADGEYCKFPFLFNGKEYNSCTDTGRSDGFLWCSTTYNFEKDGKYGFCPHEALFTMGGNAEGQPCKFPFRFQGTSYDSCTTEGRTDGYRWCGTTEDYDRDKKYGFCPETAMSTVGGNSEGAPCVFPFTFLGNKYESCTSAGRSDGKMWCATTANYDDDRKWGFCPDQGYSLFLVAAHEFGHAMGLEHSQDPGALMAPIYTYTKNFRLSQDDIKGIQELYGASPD
Sequence of MMP-9 (recombinant catalytic domain, APMA-activated) (chain, as listed by the source): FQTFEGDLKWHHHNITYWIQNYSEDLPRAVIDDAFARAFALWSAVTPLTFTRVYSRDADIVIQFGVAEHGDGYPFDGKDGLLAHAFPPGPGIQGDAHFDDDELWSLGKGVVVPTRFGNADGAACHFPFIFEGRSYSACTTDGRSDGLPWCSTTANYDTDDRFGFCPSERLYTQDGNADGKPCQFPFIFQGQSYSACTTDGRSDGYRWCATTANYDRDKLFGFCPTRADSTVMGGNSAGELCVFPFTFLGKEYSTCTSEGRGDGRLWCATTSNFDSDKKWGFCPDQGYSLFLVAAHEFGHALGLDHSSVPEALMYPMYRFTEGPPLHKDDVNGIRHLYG

Substance: MMP-2 (recombinant catalytic domain, APMA-activated)
- selectivity ratio: kcat/Km for MMP-2 divided by kcat/Km for MMP-9 [1]: 8
- % hydrolysis (substrate phage ELISA) [2]: 81%
- % hydrolysis (substrate phage ELISA) [3]: 100%
- selectivity ratio: kcat/Km for MMP-2 divided by kcat/Km for MMP-7 [4]: 354
- selectivity ratio: kcat/Km for MMP-2 divided by kcat/Km for MMP-9 [4]: 108
- selectivity ratio: kcat/Km for MMP-2 divided by kcat/Km for MMP-13 [4]: 140
- selectivity ratio: kcat/Km for MMP-2 divided by kcat/Km for MMP-7 [5]: 6
- selectivity ratio: kcat/Km for MMP-2 divided by kcat/Km for MMP-9 [5]: 14
- selectivity ratio: kcat/Km for MMP-2 divided by kcat/Km for MMP-13 [5]: 13
- % hydrolysis (substrate phage ELISA) [6]: 100%
- selectivity ratio: kcat/Km for MMP-2 divided by kcat/Km for MMP-7 [7]: 13
- selectivity ratio: kcat/Km for MMP-2 divided by kcat/Km for MMP-9 [7]: 15
- selectivity ratio: kcat/Km for MMP-2 divided by kcat/Km for MMP-13 [7]: 28
- % hydrolysis (substrate phage ELISA) [8]: 30%
- selectivity ratio: kcat/Km for MMP-2 divided by kcat/Km for MMP-7 [9]: 84
- selectivity ratio: kcat/Km for MMP-2 divided by kcat/Km for MMP-9 [9]: 40
- selectivity ratio: kcat/Km for MMP-2 divided by kcat/Km for MMP-13 [9]: 24
- selectivity ratio: kcat/Km for MMP-2 divided by kcat/Km for MMP-7 [10]: 17
- selectivity ratio: kcat/Km for MMP-2 divided by kcat/Km for MMP-9 [10]: 71
- selectivity ratio: kcat/Km for MMP-2 divided by kcat/Km for MMP-13 [10]: 58
- peptide hydrolysis (kcat/Km), compared with MMP-9 [11]: the proline-containing peptides remained better substrates for MMP-2 (data not shown)
- % hydrolysis (substrate phage ELISA) [12]: 13%
- % hydrolysis (substrate phage ELISA) [13]: 98%
- % hydrolysis (substrate phage ELISA) [14]: 38%
- selectivity ratio: kcat/Km for MMP-2 divided by kcat/Km for MMP-7 [15]: 21
- selectivity ratio: kcat/Km for MMP-2 divided by kcat/Km for MMP-9 [15]: 2
- selectivity ratio: kcat/Km for MMP-2 divided by kcat/Km for MMP-13 [15]: 14
- % hydrolysis (substrate phage ELISA) [16]: 64%
- % hydrolysis (substrate phage ELISA) [17]: 72%
- % hydrolysis (substrate phage ELISA) [18]: 80%
- % hydrolysis (substrate phage ELISA) [19]: 50%
- % hydrolysis (substrate phage ELISA) [20]: 100%
- % hydrolysis (substrate phage ELISA) [21]: 100%
- % hydrolysis (substrate phage ELISA) [22]: 100%
- % hydrolysis (substrate phage ELISA) [23]: 19%
- % hydrolysis (substrate phage ELISA) [24]: 100%
- % hydrolysis (substrate phage ELISA) [25]: 73%
- % hydrolysis (substrate phage ELISA) [26]: 60%
- % hydrolysis (substrate phage ELISA) [27]: 48%
- % hydrolysis (substrate phage ELISA) [28]: 97%
- % hydrolysis (substrate phage ELISA) [29]: 100%
- % hydrolysis (substrate phage ELISA) [30]: 30%
- selectivity ratio: kcat/Km for MMP-2 divided by kcat/Km for MMP-7 [31]: 35
- selectivity ratio: kcat/Km for MMP-2 divided by kcat/Km for MMP-9 [31]: 198
- selectivity ratio: kcat/Km for MMP-2 divided by kcat/Km for MMP-13 [31]: 52
- % hydrolysis (substrate phage ELISA) [32]: 100%
- % hydrolysis (substrate phage ELISA) [33]: 30%
- % hydrolysis (substrate phage ELISA) [34]: 28%
- % hydrolysis (substrate phage ELISA) [35]: 30%
- % hydrolysis (substrate phage ELISA) [36]: 51%

Substance: MMP-9 (recombinant catalytic domain, APMA-activated)
- % hydrolysis (substrate phage ELISA) [37]: 60%
- % hydrolysis (substrate phage ELISA) [38]: 100%
- Km (Michaelis constant) [39]: Km values were generally in the high micromolar to low millimolar range
- kcat (first-order rate constant of substrate peptide turnover) [39]: the kcat values ranged from 9 s^-1 to 703 s^-1
- kcat/Km ratio for MMP-9 over that for MMP-7 or MMP-13 [39]: The kcat/Km ratios ranged from 2.6 to 47 fold higher for MMP-9 than for either MMP-7 or MMP-13
- % hydrolysis (substrate phage ELISA) [40]: 67%
- fold increase of the kcat/Km ratio on inclusion of Pro at P3 [11]: increased the kcat/Km ratio for MMP-9 between three and eleven-fold
- selectivity ratio: kcat/Km for MMP-9 divided by kcat/Km for MMP-7 [41]: 14
- selectivity ratio: kcat/Km for MMP-9 divided by kcat/Km for MMP-13 [41]: 12
- % hydrolysis (substrate phage ELISA) [42]: 85%
- % hydrolysis (substrate phage ELISA) [43]: 100%
- % hydrolysis (substrate phage ELISA) [44]: 100%
- selectivity ratio: kcat/Km for MMP-9 divided by kcat/Km for MMP-7 [45]: 47
- selectivity ratio: kcat/Km for MMP-9 divided by kcat/Km for MMP-13 [45]: 5
- % hydrolysis (substrate phage ELISA) [46]: 91%
- selectivity ratio: kcat/Km for MMP-9 divided by kcat/Km for MMP-7 [47]: 10
- selectivity ratio: kcat/Km for MMP-9 divided by kcat/Km for MMP-13 [47]: 3
- fold reduction of kcat/Km relative to peptide A11 [48]: reduced kcat/Km ratio nearly 30-fold
- kcat/Km ratio [48]: measurable kcat/Km ratio (2,000M^-1s^-1)
- % hydrolysis (substrate phage ELISA) [49]: 100%
- kcat/Km relative to the parent peptide A11 (mutant peptide A11m1): 2 fold

— patent publication US20040053823
